Source: patent US20170298096A1 (CANIMGUIDE THERAPEUTICS, published 2017)
Positions of bridges follow the written chain, without caps; N, C: chain ends. No end group written: not given here.

B1: Asp-N-generated albumin fragment 62-79 (peptide)
peptide: DHVKLVNEVTEFAKTCVA
B2: Asp-N-generated albumin fragment 586-609 (peptide)
peptide: DDKETCFAEEGKKLVAASQAALGL
B3: Asp-N-generated albumin fragment 495-517 (peptide)
peptide: DRVTKCCTESLVNRRPCFSALEV
B4: Asp-N-generated albumin fragment 518-535 (peptide)
peptide: DETYVPKEFNAETFTHA
B5: Asp-N-generated albumin fragment 293-319 (peptide)
peptide: DSISSKLKECCEKPLLEKSHCIAEVEN
B6: Asp-N-generated albumin fragment 96-112 (peptide)
peptide: DKLCTVATLRETYGEM
B7: Asp-N-generated albumin fragment 364-398 (peptide)
peptide: YSVVLLLRLAKTYETTLEKCCAAADPHECYAKVF
B8: Asp-N-generated albumin fragment 96-130 (peptide)
peptide: KLCTVATLRETYGEMADCCAKQEPERNECFLQHK
B9: Asp-N-generated albumin fragment 536-572 (peptide)
peptide: ICTLSEKERQIKKQTALVELVKHKPKATKEQLKAVM
B10: Asp-N-generated albumin fragment 283-319 (peptide)
peptide: LAKYICENQDSISSKLKECCEKPLLEKHCIAEVEN
B11: Asp-N-generated albumin fragment 348-388 (peptide)
peptide: VFLGMFLYEYARRHPDYSVVLLLRLAKTYETTLEKCCAAA
B12: Asp-N-generated albumin fragment 37-79 (peptide)
peptide: LGEENFKALVLIAFAQYLQQCPFEDHVKLVNEVTEFAKTCVA
B13: Asp-N-generated albumin fragment 495-535 (peptide)
peptide: RVTKCCTESLVNRRPCFSALEVDETYVPKEFNAETFTFHA
B14: Asp-N-generated albumin fragment 475-517 (peptide)
peptide: YLSVVLNQLCVLHEKTPVSDRVTKCCCTESLVNRRPFSALEV
B15: albumin fragment KYLYEIAR (peptide)
peptide: KYLYEIAR
B16: albumin fragment YLYEIAR (peptide)
peptide: YLYEIAR
B17: albumin fragment … (peptide)
peptide: CCAAADPHECYAK
B18: albumin fragment … (peptide)
peptide: AAFTECCQAADK
B19: albumin fragment … (peptide)
peptide: CCTESLVNR
B20: albumin fragment … (peptide)
peptide: AVMDDFAAFVEK
B21: albumin fragment NECFLQHK (peptide)
peptide: NECFLQHK
B22: albumin fragment O… (peptide)
peptide: QNCELFEQLGEYK
B23: albumin fragment … (peptide)
peptide: VHTECCHGDLLECADDR
B24: albumin fragment … (peptide)
peptide: KVPQVSTPTLVEVSR
B25: albumin fragment … (peptide)
peptide: FKDLGEENFK
B26: albumin fragment … (peptide)
peptide: YICENQDSISSK
B27: albumin fragment … (peptide)
peptide: LDELRDEGK
B28: albumin fragment DDNPNLPR (peptide)
peptide: DDNPNLPR
B29: albumin fragment … (peptide)
peptide: VFDEFKPLVEEPQNLIK
B30: albumin fragment … (peptide)
peptide: VPQVSTPTLVEVSR
B31: albumin fragment … (peptide)
peptide: RPCFSALEVDETYVPK
B32: albumin fragment FQNALLVR (peptide)
peptide: FQNALLVR
B33: albumin fragment … (peptide)
peptide: SLHTLFGDK
B34: albumin fragment … (peptide)
peptide: LKECCEKPLLEK
B35: albumin fragment LCTVATLR (peptide)
peptide: LCTVATLR
B36: cyclic peptide CLRLNVFCG (peptide)
peptide: CLRLNVFCG
modifications: bridge 1-8 (inferred)
B37: cyclic peptide CLRLIVMCG (peptide)
peptide: CLRLIVMCG
modifications: bridge 1-8 (inferred)
B38: cyclic peptide CLRLNVFCG (peptide)
peptide: CLRLNVFCG
modifications: bridge 1-8 (inferred); not fully specified
B39: cyclic peptide CLRLIVMCG (peptide)
peptide: CLRLIVMCG
modifications: bridge 1-8 (inferred); not fully specified
B40: SEQ ID NO: 23 (peptide)
peptide: KKLDTFFVKLSLQTER
notes: P28R variant on PEPSCAN card
B41: SEQ ID NO: 24 (peptide)
peptide: KKLDTFFVKLSLHTER
notes: P28R variant on PEPSCAN card
B42: SEQ ID NO: 25 (peptide)
peptide: KKLDTFFVKLSLNTER
notes: P28R variant on PEPSCAN card
B43: SEQ ID NO: 26 (peptide)
peptide: KKLDTFFVKLSLPTER
notes: P28R variant on PEPSCAN card
B44: SEQ ID NO: 27 (peptide)
peptide: KKLDTFFVKLSLSTER
notes: P28R variant on PEPSCAN card
B45: SEQ ID NO: 28 (peptide)
peptide: KKLDTFFVKLSLGTER
notes: P28R variant on PEPSCAN card
B46: SEQ ID NO: 29 (peptide)
peptide: KKLDTFFVKLSLATER
notes: P28R variant on PEPSCAN card
B47: SEQ ID NO: 30 (peptide)
peptide: KKLDTFFVKLSLRTER
notes: P28R variant on PEPSCAN card
B48: SEQ ID NO: 3 (peptide)
peptide: RKLDTFFVKLSLFTER
notes: P28R variant on PEPSCAN card
B49: SEQ ID NO: 16 (peptide)
peptide: KKLDTFFVKLMLFTER
notes: P28R variant on PEPSCAN card
B50: SEQ ID NO: 17 (peptide)
peptide: KKLDTFFVKLTLFTER
notes: P28R variant on PEPSCAN card
B51: SEQ ID NO: 18 (peptide)
peptide: KKLDTFFVKLHLFTER
notes: P28R variant on PEPSCAN card
B52: SEQ ID NO: 31 (peptide)
peptide: KKLDTFFVKLSLFNER
notes: P28R variant on PEPSCAN card
B53: SEQ ID NO: 32 (peptide)
peptide: KKLDTFFVKLSLFPER
notes: P28R variant on PEPSCAN card
B54: SEQ ID NO: 33 (peptide)
peptide: KKLDTFFVKLSLFRER
notes: P28R variant on PEPSCAN card
B55: SEQ ID NO: 14 (peptide)
peptide: KKLDTFFVKVSLFTER
notes: P28R variant on PEPSCAN card
B56: SEQ ID NO: 19 (peptide)
peptide: KKLDTFFVKLSQFTER
notes: P28R variant on PEPSCAN card
B57: SEQ ID NO: 20 (peptide)
peptide: KKLDTFFVKLSVFTER
notes: P28R variant on PEPSCAN card
B58: SEQ ID NO: 21 (peptide)
peptide: KKLDTFFVKLSMFTER
notes: P28R variant on PEPSCAN card
B59: SEQ ID NO: 4 (peptide)
peptide: KKGDTFFVKLSLFTER
notes: P28R variant on PEPSCAN card
B60: SEQ ID NO: 5 (peptide)
peptide: KKEDTFFVKLSLFTER
notes: P28R variant on PEPSCAN card
B61: SEQ ID NO: 6 (peptide)
peptide: KKLDQFFVKLSLFTER
notes: P28R variant on PEPSCAN card
B62: SEQ ID NO: 15 (peptide)
peptide: KKLDTFFVKLQLFTER
notes: P28R variant on PEPSCAN card
B63: SEQ ID NO: 22 (peptide)
peptide: KKLDTFFVKLSLMTER
notes: P28R variant on PEPSCAN card

What follows are binders tested against Artificial Cell Surface (ACS): biotinylated cell surface proteins of PBMCs bound to streptavidin columns (assay: Asp-N-digested dHSA adsorbed on ACS column, MALDI-TOF ms).

Row | Binder | Percent Absorbed [%]
1 | B1 | 100
2 | B2 | 100
3 | B3 | 87
4 | B4 | 86
5 | B5 | 65
6 | B6 | 65
7 | B7 | 100
8 | B8 | 100
9 | B9 | 100
10 | B10 | 100
11 | B11 | 100
12 | B12 | 100
13 | B13 | 100
14 | B14 | 37

The binders below were run against Artificial Cell Surface (ACS): biotinylated cell surface proteins of PBMCs bound to streptavidin columns (assay: trypsin-digested dHSA adsorbed on ACS column, MALDI-TOF ms).

Row | Binder | Percent Absorbed [%]
15 | B15 | 71
16 | B16 | 34
17 | B17 | 32
18 | B18 | 29
19 | B19 | 26
20 | B20 | 23
21 | B21 | 22
22 | B22 | 20
23 | B23 | 13
24 | B24 | 64
25 | B25 | 8
26 | B26 | 3
27 | B27 | 2
28 | B28 | 1
29 | B29 | 60
30 | B30 | 59
31 | B31 | 42
32 | B32 | 41
33 | B33 | 36
34 | B34 | 36
35 | B35 | 35

Target: T1, His-tagged P3028 (human, also: His-tag, terminus and sequence not given here)
T1 construct: used in solution in the PEPSCAN (rampo) ELISA; also called PGE73; His-tag-P3028; not shown: His tag
T1 peptide: VFDEFKPLVEEPQNLIK
Test: positional scan, ELISA on chip with His-tag labeled P3028

Row | Binder | binding result
36 | B36 | binds
37 | B37 | binds

Target: T2, His-tagged P3028 (human, not fully specified)
T2 construct: the tag is put first after 'PGE73=His-tag-P3028'; also called PGE73; not shown: His-tag
T2 peptide: {His‑tag}-VFDEFKPLVEEPQNLIK
Test: chip ELISA with His-tag labelled P3028, positional scan

Row | Binder | binding result
38 | B38 | binds
39 | B39 | binds

Target: T3, His-tagged P3028 peptide (PGE73) (human)
T3 construct: also called His-tag-P3028; not shown: His-tag
T3 peptide: VFDEFKPLVEEPQNLIK
Test: PEPSCAN ELISA; peptide on card, His-tagged P3028 in solution

Row | Binder | RAMPO Score [rampo units]
40 | B40 | > 500
41 | B41 | > 500
42 | B42 | > 500
43 | B43 | > 500
44 | B44 | > 500
45 | B45 | > 500
46 | B46 | > 500
47 | B47 | > 500
48 | B48 | > 500
49 | B49 | > 500
50 | B50 | > 500
51 | B51 | > 500
52 | B52 | > 500
53 | B53 | > 500
54 | B54 | > 500
55 | B55 | > 500
56 | B56 | > 500
57 | B57 | > 500
58 | B58 | > 500
59 | B59 | > 500
60 | B60 | > 500
61 | B61 | > 500
62 | B62 | > 500
63 | B63 | > 500
